Patent US10562947B2, “Compositions and methods for preventing or treating diseases, conditions or processes characterized by aberrant fibroblast proliferation and extracellular matrix deposition” (MOERAE MATRIX, INC., priority 2011, dated 2020)
Where a SMILES comes first, the peptide text is derived from it.

Legend:
Experiment in all cases: Kinase Profiling Assay
Format in all cases: biochemical
[1] = target: TrkB(h) (Homo sapiens, UniProt Q16620); settings: for TrkB(h) % activity: 100 μM peptide
Outline: (§1)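 First, MK2 inhibitor peptides were applied to a panel of 266 human kinases; then each kinase's activity was measured in duplicate to assess off-target inhibition.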

[2] = target: MARK1(h) (Homo sapiens, UniProt Q9P0L2); settings: 100 μM peptide
MARK1(h), sequence (Q9P0L2 whole entry): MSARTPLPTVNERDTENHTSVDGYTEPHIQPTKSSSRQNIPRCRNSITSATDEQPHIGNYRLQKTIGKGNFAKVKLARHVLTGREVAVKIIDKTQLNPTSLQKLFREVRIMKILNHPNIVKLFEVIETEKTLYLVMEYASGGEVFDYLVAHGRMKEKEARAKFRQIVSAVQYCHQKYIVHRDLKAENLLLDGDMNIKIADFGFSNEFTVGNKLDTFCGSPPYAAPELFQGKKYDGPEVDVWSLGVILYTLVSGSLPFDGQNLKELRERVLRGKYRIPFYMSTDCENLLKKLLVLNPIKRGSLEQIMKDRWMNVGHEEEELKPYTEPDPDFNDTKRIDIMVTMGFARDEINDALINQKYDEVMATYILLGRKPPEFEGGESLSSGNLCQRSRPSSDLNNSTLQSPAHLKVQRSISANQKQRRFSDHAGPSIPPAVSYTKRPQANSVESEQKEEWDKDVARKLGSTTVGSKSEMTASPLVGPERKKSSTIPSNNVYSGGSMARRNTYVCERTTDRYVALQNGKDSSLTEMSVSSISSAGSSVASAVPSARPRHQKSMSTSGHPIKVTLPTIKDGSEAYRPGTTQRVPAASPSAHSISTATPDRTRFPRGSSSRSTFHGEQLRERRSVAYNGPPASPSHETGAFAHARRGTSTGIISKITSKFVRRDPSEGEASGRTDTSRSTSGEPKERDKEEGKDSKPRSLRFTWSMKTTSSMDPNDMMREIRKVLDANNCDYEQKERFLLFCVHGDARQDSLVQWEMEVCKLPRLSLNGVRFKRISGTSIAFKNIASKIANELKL
Outline: as §1

[3] = target: Src(T341M)(h) (Homo sapiens, UniProt P12931, T341M); settings: 100 μM peptide
Outline: as §1

[4] = target: ALK(h) (Homo sapiens, UniProt Q9UM73); settings: 100 μM peptide
ALK(h), sequence (Q9UM73 19-1620): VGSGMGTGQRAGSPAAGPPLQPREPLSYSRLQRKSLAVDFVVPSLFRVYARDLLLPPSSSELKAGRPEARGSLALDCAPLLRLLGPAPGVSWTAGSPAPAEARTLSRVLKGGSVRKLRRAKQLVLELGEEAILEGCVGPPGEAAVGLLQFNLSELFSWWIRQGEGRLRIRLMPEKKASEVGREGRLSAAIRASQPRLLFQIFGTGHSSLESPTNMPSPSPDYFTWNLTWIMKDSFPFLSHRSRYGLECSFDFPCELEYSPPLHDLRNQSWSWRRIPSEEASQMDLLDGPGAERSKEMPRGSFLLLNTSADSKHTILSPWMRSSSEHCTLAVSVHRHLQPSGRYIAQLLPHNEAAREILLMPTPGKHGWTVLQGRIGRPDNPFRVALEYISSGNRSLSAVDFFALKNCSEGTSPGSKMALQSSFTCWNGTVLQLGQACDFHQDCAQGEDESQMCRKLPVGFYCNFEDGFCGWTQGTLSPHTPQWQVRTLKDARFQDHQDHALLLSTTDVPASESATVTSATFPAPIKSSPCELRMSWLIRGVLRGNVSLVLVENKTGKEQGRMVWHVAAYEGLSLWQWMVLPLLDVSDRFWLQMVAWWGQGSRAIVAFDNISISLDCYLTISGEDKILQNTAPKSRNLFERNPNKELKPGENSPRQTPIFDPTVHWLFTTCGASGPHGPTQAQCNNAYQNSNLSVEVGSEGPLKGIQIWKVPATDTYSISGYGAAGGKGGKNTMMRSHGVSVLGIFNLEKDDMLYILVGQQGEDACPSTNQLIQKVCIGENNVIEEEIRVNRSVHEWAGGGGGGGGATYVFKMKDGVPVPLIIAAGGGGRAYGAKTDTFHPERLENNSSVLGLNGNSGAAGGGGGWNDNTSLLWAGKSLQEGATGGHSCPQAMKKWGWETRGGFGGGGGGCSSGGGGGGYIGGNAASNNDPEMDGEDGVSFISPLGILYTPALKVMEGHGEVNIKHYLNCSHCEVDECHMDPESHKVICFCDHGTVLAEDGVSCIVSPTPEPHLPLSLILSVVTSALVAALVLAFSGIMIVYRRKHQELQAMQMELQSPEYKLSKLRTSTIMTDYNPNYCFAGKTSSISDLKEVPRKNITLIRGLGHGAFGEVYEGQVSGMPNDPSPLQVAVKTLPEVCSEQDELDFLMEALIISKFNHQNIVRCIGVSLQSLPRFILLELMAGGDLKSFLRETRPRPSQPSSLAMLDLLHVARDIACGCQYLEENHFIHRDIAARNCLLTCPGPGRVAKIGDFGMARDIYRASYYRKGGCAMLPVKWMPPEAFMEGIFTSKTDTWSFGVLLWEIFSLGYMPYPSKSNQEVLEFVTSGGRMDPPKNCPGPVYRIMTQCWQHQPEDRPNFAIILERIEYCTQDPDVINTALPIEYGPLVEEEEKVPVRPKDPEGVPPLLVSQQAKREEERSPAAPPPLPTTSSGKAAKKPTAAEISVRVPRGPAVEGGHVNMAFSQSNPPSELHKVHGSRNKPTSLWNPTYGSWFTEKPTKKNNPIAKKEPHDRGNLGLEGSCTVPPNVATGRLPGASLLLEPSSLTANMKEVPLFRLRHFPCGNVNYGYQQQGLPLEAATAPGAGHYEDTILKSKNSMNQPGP
Outline: as §1

[5] = target: T1, Mer(h) (Homo sapiens, UniProt Q12866); settings: 100 μM peptide
T1 sequence (Q12866 21-999): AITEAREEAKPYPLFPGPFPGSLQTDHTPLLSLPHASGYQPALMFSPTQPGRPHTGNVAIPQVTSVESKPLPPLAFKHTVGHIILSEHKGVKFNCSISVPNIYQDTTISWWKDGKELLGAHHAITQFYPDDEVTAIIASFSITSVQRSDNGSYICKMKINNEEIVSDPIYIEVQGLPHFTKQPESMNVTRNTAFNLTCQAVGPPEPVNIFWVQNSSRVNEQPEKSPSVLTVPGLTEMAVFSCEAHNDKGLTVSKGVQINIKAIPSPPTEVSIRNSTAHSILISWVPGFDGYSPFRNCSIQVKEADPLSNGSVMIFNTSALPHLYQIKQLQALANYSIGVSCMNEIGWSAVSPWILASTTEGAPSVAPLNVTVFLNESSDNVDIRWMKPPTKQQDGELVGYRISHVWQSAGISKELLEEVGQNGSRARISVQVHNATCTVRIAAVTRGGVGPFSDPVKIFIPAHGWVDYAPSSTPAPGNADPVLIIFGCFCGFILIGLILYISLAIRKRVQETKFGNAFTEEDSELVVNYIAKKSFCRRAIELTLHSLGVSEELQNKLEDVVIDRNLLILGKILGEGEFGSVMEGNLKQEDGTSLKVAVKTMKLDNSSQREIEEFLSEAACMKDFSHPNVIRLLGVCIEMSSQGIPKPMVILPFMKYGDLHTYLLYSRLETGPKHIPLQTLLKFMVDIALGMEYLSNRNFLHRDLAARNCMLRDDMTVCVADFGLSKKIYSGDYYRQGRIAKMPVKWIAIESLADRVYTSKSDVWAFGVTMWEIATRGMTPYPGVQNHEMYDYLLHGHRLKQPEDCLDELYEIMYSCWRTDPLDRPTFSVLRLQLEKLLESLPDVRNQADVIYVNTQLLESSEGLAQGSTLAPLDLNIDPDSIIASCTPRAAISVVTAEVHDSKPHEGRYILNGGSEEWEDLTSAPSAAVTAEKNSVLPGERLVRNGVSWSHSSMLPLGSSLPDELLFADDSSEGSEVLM
Outline: as §1

[6] = target: CHK2(h) (Homo sapiens, UniProt O96017); settings: 100 μM peptide
CHK2(h), sequence (O96017 whole entry): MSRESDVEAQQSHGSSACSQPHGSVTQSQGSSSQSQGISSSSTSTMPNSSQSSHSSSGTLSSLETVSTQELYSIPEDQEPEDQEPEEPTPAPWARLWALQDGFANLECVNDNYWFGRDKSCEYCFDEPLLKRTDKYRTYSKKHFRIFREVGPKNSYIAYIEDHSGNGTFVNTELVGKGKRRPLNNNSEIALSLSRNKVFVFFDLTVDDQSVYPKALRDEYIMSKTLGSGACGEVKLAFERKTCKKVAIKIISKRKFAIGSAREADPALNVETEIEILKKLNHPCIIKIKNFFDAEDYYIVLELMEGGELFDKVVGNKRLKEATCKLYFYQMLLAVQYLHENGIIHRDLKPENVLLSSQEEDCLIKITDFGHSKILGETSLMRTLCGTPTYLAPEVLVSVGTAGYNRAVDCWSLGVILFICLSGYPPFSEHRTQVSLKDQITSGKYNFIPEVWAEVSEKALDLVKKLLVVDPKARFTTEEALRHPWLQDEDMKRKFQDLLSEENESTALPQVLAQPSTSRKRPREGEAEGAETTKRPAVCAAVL
Outline: as §1

[7] = target: PKBγ(h) (Homo sapiens, UniProt Q9Y243); settings: 100 μM peptide
PKBγ(h), sequence (Q9Y243 whole entry): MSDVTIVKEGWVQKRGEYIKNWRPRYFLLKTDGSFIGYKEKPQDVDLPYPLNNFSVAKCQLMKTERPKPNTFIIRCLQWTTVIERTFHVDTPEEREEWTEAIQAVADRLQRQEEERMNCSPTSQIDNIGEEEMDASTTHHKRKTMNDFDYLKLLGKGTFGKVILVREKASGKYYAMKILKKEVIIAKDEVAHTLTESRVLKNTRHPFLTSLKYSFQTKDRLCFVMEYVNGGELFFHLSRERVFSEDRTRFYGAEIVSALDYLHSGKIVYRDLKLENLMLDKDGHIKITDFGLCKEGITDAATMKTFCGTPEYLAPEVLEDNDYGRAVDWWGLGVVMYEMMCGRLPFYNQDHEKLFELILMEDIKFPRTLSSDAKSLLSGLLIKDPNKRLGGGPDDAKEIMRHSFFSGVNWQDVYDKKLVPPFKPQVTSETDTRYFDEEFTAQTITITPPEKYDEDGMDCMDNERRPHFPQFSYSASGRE
Outline: as §1

[8] = target: T2, ULK2(h) (Homo sapiens, UniProt Q8IYT8); settings: 100 μM peptide
T2 sequence (Q8IYT8 1-1036): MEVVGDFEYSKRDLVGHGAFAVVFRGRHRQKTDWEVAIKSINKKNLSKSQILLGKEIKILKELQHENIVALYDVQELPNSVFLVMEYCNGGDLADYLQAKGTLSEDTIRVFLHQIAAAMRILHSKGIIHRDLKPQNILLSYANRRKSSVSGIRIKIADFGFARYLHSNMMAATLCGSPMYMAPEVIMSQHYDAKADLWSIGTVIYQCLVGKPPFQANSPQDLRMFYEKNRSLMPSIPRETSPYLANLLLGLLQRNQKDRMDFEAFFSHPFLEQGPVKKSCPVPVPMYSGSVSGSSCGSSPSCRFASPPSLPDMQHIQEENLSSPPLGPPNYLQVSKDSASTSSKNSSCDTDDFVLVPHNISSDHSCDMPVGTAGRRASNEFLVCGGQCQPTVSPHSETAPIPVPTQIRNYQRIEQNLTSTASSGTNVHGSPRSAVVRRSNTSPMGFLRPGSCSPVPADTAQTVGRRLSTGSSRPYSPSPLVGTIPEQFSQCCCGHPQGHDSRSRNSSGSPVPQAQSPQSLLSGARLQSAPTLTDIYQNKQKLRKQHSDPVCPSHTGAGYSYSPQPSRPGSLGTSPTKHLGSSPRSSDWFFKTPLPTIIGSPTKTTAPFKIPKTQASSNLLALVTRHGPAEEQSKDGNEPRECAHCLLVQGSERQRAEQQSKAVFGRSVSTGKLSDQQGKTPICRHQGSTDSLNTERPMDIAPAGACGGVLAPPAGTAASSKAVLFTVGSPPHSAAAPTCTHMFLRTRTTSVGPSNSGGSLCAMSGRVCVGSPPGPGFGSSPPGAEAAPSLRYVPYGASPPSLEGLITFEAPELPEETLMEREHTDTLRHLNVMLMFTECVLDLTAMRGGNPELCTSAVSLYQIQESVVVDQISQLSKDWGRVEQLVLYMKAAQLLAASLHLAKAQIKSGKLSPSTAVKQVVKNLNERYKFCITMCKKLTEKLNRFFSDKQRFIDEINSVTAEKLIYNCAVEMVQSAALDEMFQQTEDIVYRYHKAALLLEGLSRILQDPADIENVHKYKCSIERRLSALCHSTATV
Outline: as §1

Molecule | inhibition at 100 µM ([1]; read-out: inhibition of kinase activity of TrkB) | MARK1(h) % activity [2] | Src(T341M)(h) % activity [3] | TrkB(h) % activity [1] | ALK(h) % activity [4] | Mer(h) % activity [5] | CHK2(h) % activity [6] | PKBγ(h) % activity [7] | ULK2(h) % activity [8]
CC(C)C[C@H](NC(=O)[C@H](C)NC(=O)[C@H](CCCCN)NC(=O)[C@H](C)NC(=O)[C@H](CCCNC(=N)N)NC(=O)[C@H](C)NC(=O)[C@H](CCC(N)=O)NC(=O)[C@H](CCCNC(=N)N)NC(=O)[C@H](C)NC(=O)[C@H](C)NC(=O)[C@H](C)NC(=O)[C@H](CCCNC(=N)N)NC(=O)[C@H](C)NC(=O)[C@@H](N)Cc1ccc(O)cc1)C(=O)N[C@@H](C)C(=O)N[C@@H](CCCNC(=N)N)C(=O)N[C@@H](CCC(N)=O)C(=O)N[C@@H](CC(C)C)C(=O)NCC(=O)N[C@H](C(=O)N[C@@H](C)C(=O)N[C@@H](C)C(=O)O)C(C)C [MMI-0100] (H-YARAAARQARAKALARQLGVAA-OH; N-terminus and C-terminus assumed) | > 65% | – | – | – | – | – | – | – | –
FAKLAARLYRKALARQLGVAA [MMI-0300] | – | 132% | 70% | 5% | 19% | 52% | 66% | 20% | 122%
HRRIKAWLKKIKALARQLGVAA (Mammalian) [MMI-0500] | – | 110% | 59% | 12% | 12% | 17% | 13% | 20% | 124%
KAFAKLAARLYRKALARQLGVAA [MMI-0400] | – | 120% | 76% | 8% | 16% | 50% | 54% | 41% | 131%
YARAAARQARAKALNRQLGVA (Mammalian) [MMI-0200] | – | – | 56% | 7% | 95% | 90% | – | – | 132%
